Assay results published in paper PMC314469, “Protein Interaction Networks by Proteome Peptide Scanning” (PLoS Biology, 2004).

B1: YDR429C 58-71 (peptide)
chain: YGSEKGSPAGPSAV
B2: YJL083W 456-469 (peptide)
chain: YSYLRLLPWWPSLA
B3: YLR425W 99-112 (peptide)
chain: YVKERRPPPPPPLL
B4: YDR147W 90-103 (peptide)
chain: YVNAKLDPSLPSQY
B5: YMR015C 408-421 (peptide)
chain: YVVKKNFPVSPNYT
B6: YJR137C 1187-1200 (peptide)
chain: YWGKKFEPERPFEF
B7: YER064C 178-191 (peptide)
chain: YPNGRTLPPVPTQV
B8: YDL133W 210-223 (peptide)
chain: YGDNKKNPESPESV

Target: T1, Boi1 SH3 (BOI1_YEAST), P38041
T1 chain: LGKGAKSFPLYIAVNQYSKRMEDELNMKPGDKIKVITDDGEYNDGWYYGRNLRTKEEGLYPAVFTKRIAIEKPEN
Experiment: SPOT array

Binder	normalised SPOT signal, Boehringer light units (BLU); mean over the file's lines of this peptide
B1	65.1
B2	94.5
B3	17.5
B4	71.4
B5	234
B6	678
B7	-0
B8	79.4

Target: T2, Boi2 SH3 (BOI2_YEAST), P39969
T2 chain: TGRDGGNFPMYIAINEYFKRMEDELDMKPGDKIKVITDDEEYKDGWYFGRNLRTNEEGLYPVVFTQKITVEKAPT
Experiment: SPOT array

Binder	normalised SPOT signal, Boehringer light units (BLU); mean over the file's lines of this peptide
B1	40
B2	54.3
B3	17.8
B4	10.8
B5	28.9
B6	266
B7	18.3
B8	8.4

Target: T3, Myo5 SH3 (MYO5_YEAST), Q04439
T3 chain: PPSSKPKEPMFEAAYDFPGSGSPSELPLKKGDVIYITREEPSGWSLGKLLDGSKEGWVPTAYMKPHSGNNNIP
Experiment: SPOT array

Binder	normalised SPOT signal, Boehringer light units (BLU); mean over the file's lines of this peptide
B1	50.3
B2	188
B3	15900
B4	97.1
B5	194
B6	385
B7	172
B8	147

Target: T4, Rvs167 SH3 (RV167_YEAST), P39743
T4 chain: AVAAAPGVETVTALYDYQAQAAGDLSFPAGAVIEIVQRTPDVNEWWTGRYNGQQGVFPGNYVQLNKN
Experiment: SPOT array

Binder	normalised SPOT signal, Boehringer light units (BLU); mean over the file's lines of this peptide
B1	28.6
B2	115
B3	163
B4	41.1
B5	33.5
B6	350
B7	922
B8	3.3

Each binder was assayed against Sho1 SH3 (SHO1_YEAST), P40073 (assay: SPOT array).
Sho1 SH3 (SHO1_YEAST), P40073, sequence (P40073 295-366): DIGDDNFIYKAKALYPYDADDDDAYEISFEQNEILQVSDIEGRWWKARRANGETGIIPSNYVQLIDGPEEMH

Binder	normalised SPOT signal, Boehringer light units (BLU); mean over the file's lines of this peptide
B1	46.4
B2	138
B3	63.5
B4	29.3
B5	332
B6	460
B7	17400
B8	25.3

Target: T5, Yfr024 SH3 (LSB3_YEAST), P43603
T5 chain: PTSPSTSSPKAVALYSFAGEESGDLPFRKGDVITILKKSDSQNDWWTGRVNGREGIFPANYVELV
Experiment: SPOT array

Binder	normalised SPOT signal, Boehringer light units (BLU); mean over the file's lines of this peptide
B1	13.4
B2	94.4
B3	330
B4	91.6
B5	163
B6	1160
B7	1460
B8	13.3

Target: T6, Yhr016c SH3 (YSC84_YEAST), P32793
T6 chain: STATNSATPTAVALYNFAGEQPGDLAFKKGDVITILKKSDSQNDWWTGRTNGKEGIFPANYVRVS
Experiment: SPOT array

Binder	normalised SPOT signal, Boehringer light units (BLU); mean over the file's lines of this peptide
B1	8.8
B2	99.5
B3	32.3
B4	17.8
B5	39.5
B6	324
B7	505
B8	19.5
